The source of these data is article PMC5510989.

In general, Kd refers to the free concentration of one partner at which half of the binding sites on the other are occupied at equilibrium, for simple one-to-one binding. Higher therefore signals a looser complex.

Changes are numbered by the printed parent chain. Names and notes keep the numbering of the source.

To fix the notation:
B1: MBP-DDX1 WT (DEAD-Box Protein 1 fused to maltose binding protein) (enzyme)
chain: MAAFSEMGVMPEIAQAVEEMDWLLPTDIQAESIPLILGGGDVLMAAETGSGKTGAFSIPVIQIVYETLKDQQEGKKGKTTIKTGASVLNKWQMNPYDRGSAFAIGSDGLCCQSREVKEWHGCRATKGLMKGKHYYEVSCHDQGLCRVGWSTMQASLDLGTDKFGFGFGGTGKKSHNKQFDNYGEEFTMHDTIGCYLDIDKGHVKFSKNGKDLGLAFEIPPHMKNQALFPACVLKNAELKFNFGEEEFKFPPKDGFVALSKAPDGYIVKSQHSGNAQVTQTKFLPNAPKALIVEPSRELAEQTLNNIKQFKKYIDNPKLRELLIIGGVAARDQLSVLENGVDIVVGTPGRLDDLVSTGKLNLSQVRFLVLDEADGLLSQGYSDFINRMHNQIPQVTSDGKRLQVIVCSATLHSFDVKKLSEKIMHFPTWVDLKGEDSVPDTVHHVVVPVNPKTDRLWERLGKSHIRTDDVHAKDNTRPGANSPEMWSEAIKILKGEYAVRAIKEHKMDQAIIFCRTKIDCDNLEQYFIQQGGGPDKKGHQFSCVCLHGDRKPHERKQNLERFKKGDVRFLICTDVAARGIDIHGVPYVINVTLPDEKQNYVHRIGRVGRAERMGLAISLVATEKEKVWYHVCSSRGKGCYNTRLKEDGGCTIWYNEMQLLSEIEEHLNCTISQVEPDIKVPVDEFDGKVTYGQKRAAGGGSYKGHVDILAPTVQELAALEKEAQTSFLHLGYLPNQLFRTF
B2: MBP-DDX1 K52N (enzyme)
chain: B1 chain with K52N
B3: MBP-DDX1 L322E (enzyme)
chain: B1 chain with L322E
B4: MBP-DDX1 G325E (enzyme)
chain: B1 chain with G325E
B5: MBP-DDX1 L303E (enzyme)
chain: B1 chain with L303E

For this experiment, the target named is HIV-1 Rev (Regulator of Expression of Virion), Alexa-labelled (HIV-1 isolate BH10). The experiment is described as follows: fluorescence polarisation.
In turn, “MBP-DDX1 DEAD N-term + SPRY (domain or fragment)” yielded a Kd of 43 nM. For the molecule B1, the Kd is 59 nM.

For B2, the Kd was 65 nM. In the case of B3, the Kd was above 500 nM. As to B4, the Kd turned out to be 29 nM. Take B5: the Kd was above 700 nM.
